Laboratory results reported in paper PMC1447668, “Foxp3 Represses Retroviral Transcription by Targeting Both NF-κB and CREB Pathways” (PLoS Pathogens, 2006).

Target: cAMP-responsive element binding protein CREB-1 (UniProt P16220 1-327)
Test: cell-based or functional assay

Chain of cAMP-responsive element binding protein CREB-1 (P16220 whole entry): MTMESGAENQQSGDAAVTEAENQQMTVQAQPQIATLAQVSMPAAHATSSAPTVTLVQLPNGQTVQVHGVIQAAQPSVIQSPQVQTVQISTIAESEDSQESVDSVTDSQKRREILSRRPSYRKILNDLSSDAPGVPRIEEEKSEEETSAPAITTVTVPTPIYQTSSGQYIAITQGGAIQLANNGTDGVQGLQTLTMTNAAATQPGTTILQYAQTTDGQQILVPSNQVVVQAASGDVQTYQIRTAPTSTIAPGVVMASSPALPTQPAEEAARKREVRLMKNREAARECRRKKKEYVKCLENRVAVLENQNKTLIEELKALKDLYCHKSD

B1: human Foxp3 (natural protein, UniProt Q9BZS1 1-431, looked up)
chain: MPNPRPGKPSAPSLALGPSPGASPSWRAAPKASDLLGARGPGGTFQGRDLRGGAHASSSSLNPMPPSQLQLPTLPLVMVAPSGARLGPLPHLQALLQDRPHFMHQLSTVDAHARTPVLQVHPLESPAMISLTPPTTATGVFSLKARPGLPPGINVASLEWVSREPALLCTFPNPSAPRKDSTLSAVPQSSYPLLANGVCKWPGCEKVFEEPEDFLKHCQADHLLDEKGRAQCLLQREMVQSLEQQLVLEKEKLSAMQAHLAGKMALTKASSVASSDKGSCCIVAAGSQGPVVPAWSGPREAPDSLFAVRRHLWGSHGNSTFPEFLHNMDYFKFHNMRPPFTYATLIRWAILEAPEKQRTLNEIYHWFTRMFAFFRNHPATWKNAIRHNLSLHKCFVRVESEKGAVWTVDELEFRKKRSQRPSRCSNPTPGP
For B1, the “basal levels of Gal4-BD-CREB-1 activation of a Gal4 luciferase reporter in HEK 293T cells with Foxp3 overexpressed (Figure 7C)” value was > 2 fold.
